US11834499 (University of California, dated 2023)
Positions count from the first letter of the chain named.

B1: Ab 432 (antibody, V domains shown)
VH: QIQLQQSGAELARPRASVKLSCKASGYTFTSDVISWVKQRPGQGLEWIGESYLRNGNTYYNENFKGKATLTADKSSSTAYMELRSLTSEDSAVYFCARSYYGNSFAYWGQGTLVTVSA
VL: DIVMTQSPSSLTVTAREKVTMNCKSTQSLLNSGNQKNYLTWYQQKPGQPPKLLIYWASTRESGVPDRFTGSGSGTDFTLTISSVQAEDLAVYYCQNAYYYPFTFGGGTKLEIK
notes: also called 432-Chim
B2: HuAb307-1 (antibody, V domains shown)
VH: EVQLLESGGGLVQPGGSLRLSCAASGFTFSSYTMSWVRQAPGKGLEWVATIIIGGSYTYYADSVKGRFTISRDNSKNTLYLQMNSLRAEDTAVYYCTRLVKGNAMDYWGQGTLVTVSS
VL: DIVMTQSPDSLAVSLGERATINCKSSQSLLNSGNQKNYLSWYQQKPGQPPKLLIYWASTRESGVPDRFSGSGSGTDFTLTISSLQAEDVAVYYCQNDYSYPFTFGQGTKLEIK
B3: HuAb432-1 (antibody, V domains shown)
VH: QVQLVQSGAEVKKPGSSVKVSCKASGYTFTSDVISWVRQAPGQGLEWMGESYLRNGNTYYAQKFQGRVTITADKSTSTAYMELSSLRSEDTAVYYCARSYYGNSFAYWGQGTLVTVSS
VL: B2 VL with S26T, S40T, D97A, S99Y
B4: HuAb358-2 (antibody, V domains shown)
VH: EVQLVESGGGLVQPGGSLRLSCAVSGFTFSSFGMHWVRQAPGKGLEWVAYISSGTTNIYYADSVKGRFTVSRDNAKNSLYLQMNSLRAEDTAVYYCVRSGYYGNSLDYWGQGTLVTVSS
VL: B2 VL with A19V, I21M, L30F, K36R, S40T, L84V, D97V, S99I, F102L
B5: HuAb432-4 (antibody, V domains shown)
VH: B3 VH with V20L, M48I, V68A, I70L
VL: B2 VL with A19V, I21M, S26T, S40T, L84V, D97A, S99Y
B6: HuAb376-1 (antibody, V domains shown)
VH: B2 VH with I52S, I53S, G55V, V100T
VL: B2 VL with S40T
B7: HuAb307-2 (antibody, V domains shown)
VH: B2 VH
VL: B2 VL with I54F
B8: HuAb358-1 (antibody, V domains shown)
VH: B4 VH
VL: B2 VL with L30F, K36R, S40T, D97V, S99I, F102L
B9: HuAb376-2 (antibody, V domains shown)
VH: B2 VH with I52S, I53S, G55V, V100T
VL: B2 VL with A19V, I21M, S40T, L84V
B10: HuAb432-3 (antibody, V domains shown)
VH: B3 VH with V20L, M48I, V68A, I70L
VL: B2 VL with S26T, S40T, D97A, S99Y
B11: HuAb432-2 (antibody, V domains shown)
VH: B3 VH
VL: B2 VL with A19V, I21M, S26T, S40T, L84V, D97A, S99Y

Each binder was assayed against T1, human Claudin-18.2 (CLDN18.2) (human) (assay: FACS, 1.5 ug antibody, HEK293T-CLDN18.2 C12 clone cells).
T1 construct: On cells: fused to GFP in engineered HEK293T cells (clone C12), endogenous in HUPT4 and SNU601 cells; also called human CLDN18.2

Binder	FACS signal (relative antigen binding strength)
B1	161000
B2	126000
B3	97400
B4	122000
B5	173000
B6	140000
B7	133000
B8	131000
B9	119000
B10	88800
B11	128000

Each binder was assayed against T1, human Claudin-18.2 (CLDN18.2) (assay: FACS, 1.5 ug antibody, HUPT4 cells (endogenous CLDN18.2)).
Method: FACS assays were carried out to determine relative antigen binding strengths of the humanized antibodies (at either 1.5 μg or 0.3 μg) for binding to CLDN18.2 as expressed by the indicated cancer cell lines.

Binder	FACS signal (relative antigen binding strength)
B1	27900
B2	30200
B3	30600
B4	29800
B5	23100
B6	29700
B7	32500
B8	52700
B9	28300
B10	27100
B11	36100
